The target in the experiment is cell receptor(s) in the thrips midgut (Frankliniella occidentalis). In words: cell-based or functional assay.

“GN-S, soluble version of the Tomato spotted wilt virus (TSWV) GN envelope/membrane glycoprotein (from UniProt P36291 35-309)” gave a percent of transmitting adults (thrips given an acquisition access period on GN-S mixed with purified TSWV) of 8 fold and a proportion of thrips infected with virus (real time RT-PCR, insects pre-exposed to GN-S then fed on TSWV-infected plant material) of 3 fold.

These data come from patent US20080300210A1.
